In patent publication US20190112375A1 (Bristol-Myers Squibb, published 2019):

T1: recombinant human TIGIT (rhTIGIT/Fc) (human, UniProt Q495A1 22-141)
T1 construct: also called TIGIT antigen (rhTIGIT/Fc); not shown: Fc part
T1 sequence: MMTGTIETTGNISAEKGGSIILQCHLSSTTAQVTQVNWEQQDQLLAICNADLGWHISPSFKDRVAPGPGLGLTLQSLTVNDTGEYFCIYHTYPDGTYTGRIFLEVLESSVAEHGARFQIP

T2: human TIGIT (soluble, SPR; construct not stated) (human, UniProt Q495A1 22-141, limits assumed)
T2 construct: whole entry named; also called huTIGIT
T2 sequence: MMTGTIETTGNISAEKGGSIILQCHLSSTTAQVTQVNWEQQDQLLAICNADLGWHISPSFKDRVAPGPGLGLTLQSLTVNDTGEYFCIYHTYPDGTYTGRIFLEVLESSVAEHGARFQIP

T3: human TIGIT on cells (human, UniProt Q495A1 22-244)
T3 sequence: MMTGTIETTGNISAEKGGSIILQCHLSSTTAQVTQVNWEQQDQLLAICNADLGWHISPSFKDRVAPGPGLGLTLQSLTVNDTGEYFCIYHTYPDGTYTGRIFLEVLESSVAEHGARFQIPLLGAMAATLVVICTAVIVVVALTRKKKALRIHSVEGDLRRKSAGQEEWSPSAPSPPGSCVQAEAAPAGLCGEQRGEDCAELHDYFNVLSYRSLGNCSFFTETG


Key:
[1] = target: T1, recombinant human TIGIT (rhTIGIT/Fc); test: SPR, mAb captured on anti-kappa chip, rhTIGIT/Fc analyte
Procedure: Binding of anti-huTIGIT antibodies to soluble human TIGIT was determined by BIACORE® surface plasmon resonance (SPR) analysis. […] The capture concentration of the mAb/volume was 2-40 μg/mL (5 μL at 10 μL/min). The antigen association time was 5 minutes at 15 μL/min, the antigen dissociation time was 6 minutes, and regeneration was performed with 50 mM HCl/50 mM NaOH (12 μL each at 100 μL/min).

[2] = target: T2, human TIGIT (soluble, SPR; construct …); test: SPR
[3] = target: T2, human TIGIT (soluble, SPR; construct …); test: SPR, full titration curves, subcloned and purified antibody
[4] = target: T2, human TIGIT (soluble, SPR; construct …); test: SPR; remark: listed apart in the source
cynomolgus monkey TIGIT = target: T4, cynomolgus monkey TIGIT (cynomolgus monkey); test: SPR
T4 construct: also called cyno TIGIT

human TIGIT on cells = target: T3, human TIGIT on cells; test: cell-based or functional assay

| Binder | Kd [1] | koff [1] | kon [1] | Kd [2] | koff [2] | kon [2] | Kd [3] | Kd [4] | Kd (cynomolgus monkey TIGIT) | Bioassay of Jurkat/hTIGIT cells, block of PVR signaling, IC50 (human TIGIT on cells) |
| --- | --- | --- | --- | --- | --- | --- | --- | --- | --- | --- |
| 11G11 (antibody, V domains shown, fully human mAb from KM mouse hybridoma; also called anti-huTIGIT mAb 11G11) VH: QLQLQESGPGLVKPSETLSLTCTVSGGSISSSSHYWGWIRQPPGKGLEWIGNIFYSGHTYYNPSLKSRVTISVDTSKNQFSLKLSSVTAADTAVYYCARQGLLWFGGLSPYYFDYWGQGTLVTVSS VL: EIVLTQSPATLSLSPGERATLSCRASQSVSSYLAWYQQKPGQAPRLLIYDASNRATGIPARFSGSGSGTDFTLTISSLEPEDFAVYYCQQRSNWPTFGQGTKLEIK | 28.7 nM | 0.00144 s⁻¹ | 50300 M⁻¹ s⁻¹ | – | – | – | – | – | – | – |
| 15A6 IgG1.1f (antibody, kappa light chain) heavy: QLQLQESGPGLVKPSETLSLTCTVSGGSISSSRYFWGWIRQPPGKGLEWIGYIYYRGSTYYNPSLKSRVTIAVDTSKNQFSLKLSSVTAADTAVYYCASSSAWYFDYWGQGNLVTVSSASTKGPSVFPLAPSSKSTSGGTAALGCLVKDYFPEPVTVSWNSGALTSGVHTFPAVLQSSGLYSLSSVVTVPSSSLGTQTYICNVNHKPSNTKVDKRVEPKSCDKTHTCPPCPAPEAEGAPSVFLFPPKPKDTLMISRTPEVTCVVVDVSHEDPEVKFNWYVDGVEVHNAKTKPREEQYNSTYRVVSVLTVLHQDWLNGKEYKCKVSNKALPSSIEKTISKAKGQPREPQVYTLPPSREEMTKNQVSLTCLVKGFYPSDIAVEWESNGQPENNYKTTPPVLDSDGSFFLYSKLTVDKSRWQQGNVFSCSVMHEALHNHYTQKSLSLSPG VL: not shown | – | – | – | 1.5 nM | 0.0016 s⁻¹ | 1.1e+06 M⁻¹ s⁻¹ | – | – | – | – |
| 15A6 A72S IgG1.1f (antibody, kappa light chain; also called 15A6 VH domain A72S) heavy: QLQLQESGPGLVKPSETLSLTCTVSGGSISSSRYFWGWIRQPPGKGLEWIGYIYYRGSTYYNPSLKSRVTISVDTSKNQFSLKLSSVTAADTAVYYCASSSAWYFDYWGQGNLVTVSSASTKGPSVFPLAPSSKSTSGGTAALGCLVKDYFPEPVTVSWNSGALTSGVHTFPAVLQSSGLYSLSSVVTVPSSSLGTQTYICNVNHKPSNTKVDKRVEPKSCDKTHTCPPCPAPEAEGAPSVFLFPPKPKDTLMISRTPEVTCVVVDVSHEDPEVKFNWYVDGVEVHNAKTKPREEQYNSTYRVVSVLTVLHQDWLNGKEYKCKVSNKALPSSIEKTISKAKGQPREPQVYTLPPSREEMTKNQVSLTCLVKGFYPSDIAVEWESNGQPENNYKTTPPVLDSDGSFFLYSKLTVDKSRWQQGNVFSCSVMHEALHNHYTQKSLSLSPG VL: not shown | – | – | – | 1.5 nM | 0.0017 s⁻¹ | 1.1e+06 M⁻¹ s⁻¹ | – | – | – | – |
| 15A6 A72S & N112T IgG1.1f (antibody, kappa light chain; also called 15A6 VH domain A72S N112T) heavy: QLQLQESGPGLVKPSETLSLTCTVSGGSISSSRYFWGWIRQPPGKGLEWIGYIYYRGSTYYNPSLKSRVTISVDTSKNQFSLKLSSVTAADTAVYYCASSSAWYFDYWGQGTLVTVSSASTKGPSVFPLAPSSKSTSGGTAALGCLVKDYFPEPVTVSWNSGALTSGVHTFPAVLQSSGLYSLSSVVTVPSSSLGTQTYICNVNHKPSNTKVDKRVEPKSCDKTHTCPPCPAPEAEGAPSVFLFPPKPKDTLMISRTPEVTCVVVDVSHEDPEVKFNWYVDGVEVHNAKTKPREEQYNSTYRVVSVLTVLHQDWLNGKEYKCKVSNKALPSSIEKTISKAKGQPREPQVYTLPPSREEMTKNQVSLTCLVKGFYPSDIAVEWESNGQPENNYKTTPPVLDSDGSFFLYSKLTVDKSRWQQGNVFSCSVMHEALHNHYTQKSLSLSPG VL: not shown | – | – | – | 2 nM | 0.002 s⁻¹ | 1e+06 M⁻¹ s⁻¹ | – | – | – | – |
| 15A6 N112T IgG1.1f (antibody, kappa light chain; also called 15A6 VH domain N112T) heavy: QLQLQESGPGLVKPSETLSLTCTVSGGSISSSRYFWGWIRQPPGKGLEWIGYIYYRGSTYYNPSLKSRVTIAVDTSKNQFSLKLSSVTAADTAVYYCASSSAWYFDYWGQGTLVTVSSASTKGPSVFPLAPSSKSTSGGTAALGCLVKDYFPEPVTVSWNSGALTSGVHTFPAVLQSSGLYSLSSVVTVPSSSLGTQTYICNVNHKPSNTKVDKRVEPKSCDKTHTCPPCPAPEAEGAPSVFLFPPKPKDTLMISRTPEVTCVVVDVSHEDPEVKFNWYVDGVEVHNAKTKPREEQYNSTYRVVSVLTVLHQDWLNGKEYKCKVSNKALPSSIEKTISKAKGQPREPQVYTLPPSREEMTKNQVSLTCLVKGFYPSDIAVEWESNGQPENNYKTTPPVLDSDGSFFLYSKLTVDKSRWQQGNVFSCSVMHEALHNHYTQKSLSLSPG VL: not shown | – | – | – | 1.7 nM | 0.0019 s⁻¹ | 1.1e+06 M⁻¹ s⁻¹ | – | – | – | – |
| 22G2 (antibody, V domains shown, fully human mAb from KM mouse hybridoma, kappa light chain; also called anti-huTIGIT mAb 22G2; antibody 22G2) VH: QVHLQESGPGLVKPSETLSLTCTVSGGSVSSGIYYWSWIRQPPGKGLEWIGYIYYSGSTNYNPSLKSRVTISVDTSKNQFSLKLSSVTAADTAVYYCARDYYVSGNYYNVDYYFFGVDVWGQGTTVTVSS VL: EIVLTQSPATLSLSPGERATLSCRASQSVSSYLAWYQQKPGQAPRLLIYDASNRATGIPARFSGSGSGTDFTLTISSLEPEDFAVYYCQQRSNWPPLFTFGPGTKVDIK | 0.17 nM | 0.000403 s⁻¹ | 2.37e+06 M⁻¹ s⁻¹ | – | – | – | 0.09 nM | 0.06 nM | 0.09 nM | 0.21 nM |
| 22G2 H3Q IgG1 (antibody, isotype printed as IgG1 (perhaps IgG1f); kappa constant tied to the 22G2 light chain only by claim 4; also called 22G2 VH domain H3Q, isotype IgG1; not shown: human IgG1 constant region) heavy: QVQLQESGPGLVKPSETLSLTCTVSGGSVSSGIYYWSWIRQPPGKGLEWIGYIYYSGSTNYNPSLKSRVTISVDTSKNQFSLKLSSVTAADTAVYYCARDYYVSGNYYNVDYYFFGVDVWGQGTTVTVSS light: not shown | – | – | – | 0.16 nM | 0.0003 s⁻¹ | 1.9e+06 M⁻¹ s⁻¹ | – | – | – | – |
| 22G2 H3Q IgG1.1f (antibody, kappa constant tied to the 22G2 light chain only by claim 4; also called 22G2 VH domain H3Q, isotype IgG1.1f) heavy: QVQLQESGPGLVKPSETLSLTCTVSGGSVSSGIYYWSWIRQPPGKGLEWIGYIYYSGSTNYNPSLKSRVTISVDTSKNQFSLKLSSVTAADTAVYYCARDYYVSGNYYNVDYYFFGVDVWGQGTTVTVSSASTKGPSVFPLAPSSKSTSGGTAALGCLVKDYFPEPVTVSWNSGALTSGVHTFPAVLQSSGLYSLSSVVTVPSSSLGTQTYICNVNHKPSNTKVDKRVEPKSCDKTHTCPPCPAPEAEGAPSVFLFPPKPKDTLMISRTPEVTCVVVDVSHEDPEVKFNWYVDGVEVHNAKTKPREEQYNSTYRVVSVLTVLHQDWLNGKEYKCKVSNKALPSSIEKTISKAKGQPREPQVYTLPPSREEMTKNQVSLTCLVKGFYPSDIAVEWESNGQPENNYKTTPPVLDSDGSFFLYSKLTVDKSRWQQGNVFSCSVMHEALHNHYTQKSLSLSPG light: not shown | – | – | – | 0.08 nM | 0.00016 s⁻¹ | 2e+06 M⁻¹ s⁻¹ | – | – | – | – |
| 10D7 (antibody, V domains shown, fully human mAb from KM mouse hybridoma; also called anti-huTIGIT mAb 10D7) VH: QGQLVQSGAEVKKPGSSVKVSCKASGGIFRNYAISWVRQAPGQGLEWMGGIIPFFGTANYAQKFQGRVTITADESTSTAYMELSSLRSEDTAVYYCARGGAAAGTTRYGYYYYGMDVWGQGTTVTVSS VL: DIQMTQSPSSLSASVGDRVTITCRASQGISSWLAWYQQKPEKAPKSLIYAASSLQSGVPSRFSGSGSGTDFTLTISSLQPEDFATYYCQQYNSYPITFGQGTRLEIK | 38.1 nM | 0.00651 s⁻¹ | 171000 M⁻¹ s⁻¹ | – | – | – | – | – | – | – |
| 15A6 (antibody, V domains shown, fully human mAb from KM mouse hybridoma, kappa light chain; also called anti-huTIGIT mAb 15A6) VH: QLQLQESGPGLVKPSETLSLTCTVSGGSISSSRYFWGWIRQPPGKGLEWIGYIYYRGSTYYNPSLKSRVTIAVDTSKNQFSLKLSSVTAADTAVYYCASSSAWYFDYWGQGNLVTVSS VL: not shown | 19.9 nM | 0.00404 s⁻¹ | 202000 M⁻¹ s⁻¹ | – | – | – | 1.5 nM | – | – | – |
